Source: US8715959B2, “Substitution mutant receptors and their use in a nuclear receptor-based inducible gene expression system” (priority 2001, dated 2014)
Numbering of substitutions follows the chain as printed. In names and notes the source's numbering stands.

B1: C217S: DmEcR-CDEF LBD substitution mutant, Cysteine (C) to Serine (S) (protein)
chain: LTYNQLAVIYKLIWYQDGYEQPSEEDLRRIMSQPDENESQTDVSFRHITEITILTVQLIVEFAKGLPAFTKIPQEDQITLLKACSSEVMMLRMARRYDHSSDSIFFANNRSYTRDSYKMAGMADNIEDLLHFCRQMFSMKVDNVEYALLTAIVIFSDRPGLEKAQLVEAIQSYYIDTLRIYILNRHCGDSMSLVFYAKLLSILTELRTLGNQNAEMSFSLKLKNRKLPKFLEEIWDV
modifications: Drosophila melanogaster
B2: C217A: DmEcR-CDEF LBD substitution mutant, Cysteine (C) to Alanine (A) (protein)
chain: B1 chain with S217A
modifications: Drosophila melanogaster
B3: G121L: DmEcR-CDEF LBD substitution mutant, Glycine (G) to Leucine (L) (protein)
chain: B1 chain with G121L, S217C
modifications: Drosophila melanogaster

Assays:
wild-type CfEcR-A/BCDEF = target: T1, wild-type CfEcR-A/BCDEF (Choristoneura fumiferana, UniProt O77240); assay: 3H-RH2485 competition ligand binding, wild-type CfEcR-A/BCDEF with CfUSP
T1 construct: "The full-length spruce budworm Choristoneura fumiferana EcR (“CfEcR-A/BCDEF”); b350 and b353 describe plain full-length EcR translated in vitro

[1] = target: A110P mutant CfEcR-A/BCDEF (Choristoneura fumiferana, UniProt O77255, A393P); assay: 3H-RH2485 competition ligand binding, A110P mutant CfEcR-A/BCDEF with CfUSP
A110P mutant CfEcR-A/BCDEF, sequence (O77255 entry or part of it A393P): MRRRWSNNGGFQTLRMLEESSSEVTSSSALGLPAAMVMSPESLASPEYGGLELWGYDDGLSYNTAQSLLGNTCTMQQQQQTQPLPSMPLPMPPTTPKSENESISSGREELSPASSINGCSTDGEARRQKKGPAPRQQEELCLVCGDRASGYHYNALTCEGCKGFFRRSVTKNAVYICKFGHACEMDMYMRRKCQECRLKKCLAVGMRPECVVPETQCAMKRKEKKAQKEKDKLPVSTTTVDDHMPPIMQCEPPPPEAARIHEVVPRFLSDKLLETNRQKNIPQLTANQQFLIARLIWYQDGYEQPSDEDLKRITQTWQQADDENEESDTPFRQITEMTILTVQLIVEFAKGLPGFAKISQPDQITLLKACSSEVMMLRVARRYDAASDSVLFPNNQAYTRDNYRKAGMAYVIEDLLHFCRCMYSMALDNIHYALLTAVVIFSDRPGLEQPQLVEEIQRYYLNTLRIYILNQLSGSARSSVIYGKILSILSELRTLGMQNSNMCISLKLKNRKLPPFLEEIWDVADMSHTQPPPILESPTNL
A110P mutant CfEcR-A/BCDEF, sequence (O76202 whole entry, further chain, the tested form may be a part): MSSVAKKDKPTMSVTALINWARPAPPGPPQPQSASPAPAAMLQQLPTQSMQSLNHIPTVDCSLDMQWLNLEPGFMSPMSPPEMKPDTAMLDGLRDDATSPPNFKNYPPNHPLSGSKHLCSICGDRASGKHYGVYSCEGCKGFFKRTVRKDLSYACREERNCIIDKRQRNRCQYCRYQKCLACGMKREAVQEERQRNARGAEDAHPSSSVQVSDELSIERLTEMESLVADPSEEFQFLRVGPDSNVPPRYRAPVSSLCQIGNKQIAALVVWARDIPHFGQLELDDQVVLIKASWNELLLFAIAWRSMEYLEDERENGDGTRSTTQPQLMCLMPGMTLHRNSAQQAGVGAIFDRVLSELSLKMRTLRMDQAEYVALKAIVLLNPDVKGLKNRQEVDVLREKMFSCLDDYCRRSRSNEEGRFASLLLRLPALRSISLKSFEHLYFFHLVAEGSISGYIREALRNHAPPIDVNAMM
Method: The ligand binding affinities of the A110P GAL4/CfEcR mutant were measured by binding ^3H-RH2485 and competing it with different concentrations of cold steroids or non-steroids. Briefly, 3H-RH2485 was bound to in vitro translated full-length CfEcR and bacterially expressed CfUSP and competed with increasing concentrations of cold steroidal or non-steroidal ligands. The reaction was carried out at room temperature for 1 hour followed by addition of activated dextran coated charcoal and centrifugation at 7000×g for 10 minutes at 4° C. The residual ^3H-RH2485 in the supernatant after centrifugation was measured using a scintillation counter. The fraction bound (f bound) values were determined and plotted against the concentration of ligand (in mM).

DmEcR-CDEF [2] = assay: GAL4/DmEcR-CDEF wild-type and mutants, luciferase reporter transactivation in NIH3T3 cells; format: cell-based, Drosophila melanogaster; details: GAL4/DmEcR-CDEF + VP16/LmUSP-EF + pFRLUC, 48 hours
Method: DNAs corresponding to the various switch constructs outlined in Example 1, specifically switches 1.1-1.2, were transfected into mouse NIH3T3 cells (ATCC) as follows. […] Two μl of Superfect™ was mixed with 100 μl of growth medium and 50 ng of either GAL4/wild-type EcR or Gal4/mutant EcR cassette, 50 ng of VP16/LmUSP-EF and 200 ng of pFRLuc were added to the transfection mix. […] The cells were harvested and reporter activity was assayed as described above.
Applicants mutated amino acid residues predicted to be critical for ecdysteroid binding and created GAL4/mutantDmEcR-CDEF cDNA gene expression cassettes as described in Example 1 above using PCR-mediated site-directed mutagenesis. The mutated and the WT cDNAs corresponding to the various switch constructs outlined above in Examples 1.8 and 1.9 were made and tested in reporter assays in NIH3T3 cells as described in Example 2. Each GAL4/DmEcR-CDEF construct, VP16/LmUSP-EF, and pFRLUC were transfected into NIH3T3 cells and the transfected cells were treated with 2.5 μM GS-™E or Ponasterone A. The cells were harvested and the reporter activity was measured at 48 hours after addition of ligand. The fold induction was calculated by dividing reporter activity in the presence of ligand with the reporter activity in the absence of ligand. From the fold induction, percent wild-type activity was calculated for each mutant.

DmEcR-CDEF [3] = assay: VP16/DmEcR-CDEF wild-type and mutants, 6xEcRE β-gal reporter transactivation in insect L57 cells; format: cell-based, Drosophila melanogaster; details: for non-steroid activity (summary of Table 14): GS™-E; for non-steroid activity (summary of Table 14) / steroid activity (summary of Table 14): DmEcR mutants
Method: The wild-type and mutant DmEcR-CDEF receptors were also used to make VP16/wild-type or mutantDmEcR-CDEF constructs as described in Example 1.10 and 1.11. VP16DmEcR-CDEF and a 6×EcREβ-gal reporter were transfected into L57 cells and the transfected cells were treated with 1 uM 20-hydroxyecdysone (20E) or GS™-E. The cells were harvested, lysed and the reporter activity was measured as described above in Example 6. The fold induction was calculated by dividing reporter activity in the presence of ligand with the reporter activity in the absence of ligand. From the fold induction, percent wild-type activity was calculated for each mutant.

| Molecule | IC50 (wild-type CfEcR-A/BCDEF) [µM] | IC50 [1] [µM] | Fold increase over WT, 2.5 μM GS™-E (DmEcR-CDEF [2]) [fold] | Fold increase over WT, 2.5 μM Ponasterone A (DmEcR-CDEF [2]) [fold] | Fold increase over WT, 1 μM 20-hydroxyecdysone (DmEcR-CDEF [3]; VP16/DmEcR-CDEF) [fold] | Fold increase over WT, 1 μM GS™-E (DmEcR-CDEF [3]; VP16/DmEcR-CDEF) [fold] | reduction in steroid activity (DmEcR-CDEF [3]; 20E, VP16/DmEcR-CDEF, versus wild-type) [%] | non-steroid activity (summary of Table 14) (DmEcR-CDEF [3]) | steroid activity (summary of Table 14) (DmEcR-CDEF [3]; 20E) |
| --- | --- | --- | --- | --- | --- | --- | --- | --- | --- |
| CC(C)CC[C@@H](O)[C@](C)(O)[C@H]1CC[C@@]2(O)C3=CC(=O)[C@]4(O)C[C@@H](O)[C@@H](O)C[C@]4(C)[C@H]3[C@H](O)C[C@]12C [Muristerone A, muristeroneA] | 0.424 | > 1000 |  |  |  |  |  |  |  |
| CCc1ccc(C(=O)NN(C(=O)c2cc(C)cc(C)c2)C(C)(C)C)cc1 [RH-5992] | 0.133 | 0.322 |  |  |  |  |  |  |  |
| CC(C)CC[C@@H](O)[C@](C)(O)[C@H]1CC[C@@]2(O)C3=CC(=O)[C@@H]4C[C@@H](O)[C@@H](O)C[C@]4(C)[C@H]3CC[C@]12C [Ponasterone A, ponasterone A] | 0.346 | > 1000 |  |  |  |  |  |  |  |
| Cc1cc(C)cc(C(=O)N(NC(=O)c2ccc3c(c2C)OCCO3)C(C)(C)C)c1 [RH-125020, N′-tert-butyl-N′-(3,5-dimethylbenzoyl)-3,4-(1,2-ethylenedioxy)-2-methylbenzohydrazide] | 0.0101 | 0.0257 |  |  |  |  |  |  |  |
| B1 |  |  | 0.014 | 0.0064 | 0.39 | 0.92 | 61 | minimal effect |  |
| B2 |  |  | 0.008 | 0.022 | 0.48 | 0.70 |  | reduced | reduced |
| B3 |  |  | 0.008 | 0.001 | 0.09 | 0.15 |  | lost sensitivity | lost sensitivity |
